The chains are these.
B2: soluble alkaline phosphatase-FLRT3 ectodomain fusion protein (AP-FLRT3ΔTM) (domain or fragment, Xenopus, UniProt Q70AK3 29-527, looked up)
chain: KPCPSVCRCDAGFIYCNDRDLTSIPSGIPDDATTLYLQNNQINNAGIPSDLKGLDKVERIYLYRNSLDEFPINLPKNVKELHLQENNIRTITYDALLQIPFIEELHLDDNSVSAVSIEDGAFRDNIFLRLLFLSRNHLSTIPWGLPKTIEELRLDDNRISTISEISLQDLTNLKRLVLDGNLLNNNGLGERVFMNLINLTELSLVRNSLTSPPANLPGTSLRKLYLQENHMNYVPPNSFADLTQLYRLDMSNNNLTALPQGIFDDLDNLTQLFLRNNPWYCGCKMKWVRDWLQSLPSKVNVRGLMCQAPERVRGMTIKDLNKELFDCKDRIGSNTIHVTTTMLNSLLPAQGQWPVPVTKQPEIRPPDINKIFRTTPIPVKKIITIQVKSITTETIYISWKVALPMTALRLSWQLGHSPVFGSITETIVTGDRAEYLLTALEPESPYRICMVPMETGNIYLSDETPVCIETETAPLKMYNPTTTLNREQEKEPYKNSSLP
notes: FLRT3, Xenopus, ectodomain (ΔTM); also called AP-tagged FLRT3ΔTM; source: conditioned medium, concentrated

For experiment [1], the target named is B2. In words: equilibrium binding of an alkaline phosphatase fusion protein to transfected cells, binding curves and Scatchard analysis; different amounts of concentrated AP-FLRT3ΔTM conditioned medium on transfected cells, 1 h at RT; washed with PBS containing 0.2 M NaCl; cells lysed; AP activity read at 405 nm, normalised to cell number. Conditions: partners not purified.

A further experiment deals with T1, Xenopus Unc5B (Xenopus, UniProt Q8JGT4 31-943).
T1 construct: Netrin receptor Unc5B, Xenopus; Constructs are in Text S1; source: HEK293T, transfected, on cells
T1 sequence (Q8JGT4 31-943): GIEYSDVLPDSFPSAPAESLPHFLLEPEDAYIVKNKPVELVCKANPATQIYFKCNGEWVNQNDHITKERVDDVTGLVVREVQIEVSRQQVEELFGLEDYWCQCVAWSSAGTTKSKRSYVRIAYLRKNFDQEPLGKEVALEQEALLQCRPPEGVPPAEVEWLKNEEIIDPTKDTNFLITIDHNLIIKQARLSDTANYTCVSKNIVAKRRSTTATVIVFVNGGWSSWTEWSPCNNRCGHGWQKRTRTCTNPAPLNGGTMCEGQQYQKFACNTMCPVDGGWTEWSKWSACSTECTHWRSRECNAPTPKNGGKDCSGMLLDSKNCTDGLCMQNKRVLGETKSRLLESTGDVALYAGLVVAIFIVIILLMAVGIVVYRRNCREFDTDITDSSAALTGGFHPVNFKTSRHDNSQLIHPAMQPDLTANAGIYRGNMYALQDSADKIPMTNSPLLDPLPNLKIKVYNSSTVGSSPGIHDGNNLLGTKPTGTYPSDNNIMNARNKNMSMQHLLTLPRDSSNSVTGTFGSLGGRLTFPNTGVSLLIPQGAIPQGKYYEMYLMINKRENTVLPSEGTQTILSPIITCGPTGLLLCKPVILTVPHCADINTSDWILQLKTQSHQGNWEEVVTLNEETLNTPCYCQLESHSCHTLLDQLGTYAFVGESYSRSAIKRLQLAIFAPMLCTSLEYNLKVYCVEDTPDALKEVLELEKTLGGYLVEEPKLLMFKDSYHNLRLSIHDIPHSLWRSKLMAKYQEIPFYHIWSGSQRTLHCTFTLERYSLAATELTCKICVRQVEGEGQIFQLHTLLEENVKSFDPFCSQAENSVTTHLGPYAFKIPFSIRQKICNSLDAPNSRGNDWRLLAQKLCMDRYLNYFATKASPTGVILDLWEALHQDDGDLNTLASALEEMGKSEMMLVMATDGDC
Described as above. The following applies: partners not purified.

B1: Unc5D (splice variant of the mouse Unc5D gene) (receptor)
chain: ARGADGSEILPDSIPSAPGTLPHFIEEPEDAYIIKSNPIALRCKARPAMQIFFKCNGEWVHQNEHVSEESLDESSGLKVREVFINVTRQQVEDFHGPEDYWCQCVAWSHLGTSKSRKASVRIAYLRKNFEQDPQGREVPIEGMIVLHCRPPEGVPAAEVEWLKNEEPIDSEQDENIDTRADHNLIIRQARLSDSGNYTCMAANIVAKRRSLSATVVVYVNGGWSSWTEWSACNVRCGRGWQKRSRTCTNPAPLNGGAFCEGMSVQKITCTALCPVDGSWEVWSEWSVCSPECEHLRIRECTAPPPRNGGKFCEGLSQESENCTDGLCILDKKPLHEIKPQSIENASDIALYSGLGAAVVAVAVLVIGVTLYRRSHSDYGVDVIDSSALTGNSLLLNPAMQPDLTVSRTYSGPICLQDPLDKELMTESSLFNPLSDIKVKVQSSFMVSLGVSERAEYHGKNHSGTFPHGNNRGFSTIHPRNKTPYIQNLSSLPTRTELRTTGVFGHLGGRLVMPNTGVSLLIPHGAIPEENSWEIYMSINQGEPSLQSDGSEVLLSPEVTCGPPDMLVTTPFALTIPHCADVSSEHWNIHLKKRTQQGKWEEVMSVEDESTSCYCLLDPFACHVLLDSFGTYALTGEPITDCAVKQLKVAVFGCMSCNSLDYNLRVYCVDNTPCAFQEVISDERHQGGQLLEEPKLLHFKGNTFSLQVSVLDIPPFLWRIKPFTACQEVPFSRVWSSNRQPLHCAFSLERYTPTTTQLSCKICIRQLKGHEQILQVQTSILESERETITFFAQEDSTFPAQTGPKAFKIPYSIRQRICATFDTPNAKGKDWQMLAQKNSINRNLSYFATQSSPSAVILNLWEARHQQDGDLDSLACALEEIGRTHTKLSNITEPQIDDADFNYSRQNGL
As for B1, the affinity in experiment [1], expressed as Kd, was 26 nM.
In the case of B2, binding in the experiment with Xenopus Unc5B was characterised by a dissociation constant (Kd) of 50 nM.

The record behind these values is article PMC2683942, “Unc5B Interacts with FLRT3 and Rnd1 to Modulate Cell Adhesion in Xenopus Embryos” (PLoS ONE, 2009).
